Source: the nanobody polyreactivity screen of Harvey et al. (2022)

Test: yeast display, Sf9 membrane polyspecificity reagent, FACS + sequencing; frameworks hold sequencing errors
In short: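 A nanobody's polyreactivity label depends on the gate it was sorted from. Yeast display cells were stained with 10% biotinylated, detergent-solubilized Sf9 membrane reagent for 1 hour at 4 °C, enriched on streptavidin microbeads and sorted by FACS. The low and high (top ~1%) gates were set on anti-HA fluorescence for expression and streptavidin fluorescence for reagent binding.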

QVQLVESGGGLVQAGGSLRLSCAASGRIFSHNAMGWYRQAPGKERELVASIRSSSGRTYYADSVKGRITISRDNAKNTVYLQMNSLTPEDTAVYYCAARQYSSKPYLYGYNYWGQGTQVTVSS
polyreactivity (PSR sort gate): high polyreactivity

QVQLVESGGGLVQAGGSLRLSCAASGRIFSKYAMGWYRQAPGKERELVAAITYSGGSTYYADSVKGRFTISRDNAKNTVYLQMNSLKPEDTAVYYCAAVHGTSYSKWFGYWGQGTQVTVSS
polyreactivity (PSR sort gate): low polyreactivity

QVQLVESGGGLVQAGGSLRLSCAASGRIFSKYTMGWYIQAPGKEMELVAAISGSGTSTYYADSVKGRFTISRDNAKNTVYLQMNSLKPEDTAVYYCNAVKSWGHPGRYYWGQGTQVTVSS
polyreactivity (PSR sort gate): high polyreactivity

QVQLVESGGGLVQAGGSLRLSCAASGRIFSLNTMGWYRQAPGKERELVATITKRGGNTYYADSVKGRFTISRDNAKNTVYLQMNSLKPEDTAFYYCAVPRSITYRYGYWGQGTQVTVSS
polyreactivity (PSR sort gate): high polyreactivity

QVQLVESGGGLVQAGGSLRLSCAASGRIFSLYAMGWYRQAPGKERELVADITYRGGDSTYYADSVKGRFTISRDNAKNTVYLKMNSLKPEDTAVYYCAAGQPLYQRRHSSRTYYYWGQGTQVTVSS
polyreactivity (PSR sort gate): high polyreactivity

QVQLVESGGGLVQAGGSLRLSCAASGRIFSLYAMGWYRQAPGKERELVAGITWRGGSTYYADSVKGRFTISRDNAKNTVYLQMNSMKPEDTAVYYCAARPWNWRDYDYWGQGTQVTVSS
polyreactivity (PSR sort gate): high polyreactivity

QVQLVESGGGLVQAGGSLRLSCAASGRIFSLYAMGWYRQAPGNERELVAAISKRGGSTYYADSVKGRFTISRDNAKNTVYLHMNSLKPEDTAVYYCATQLPFRKPWHDYWGQGTQVTVSS
polyreactivity (PSR sort gate): high polyreactivity

QVQLVESGGGLVQAGGSLRLSCAASGRIFSNYAMGWYRQAPGKERELVAAITSGGNTYYADSVKGRFTISRDNAKNTVYLQMNSLKPEDTAVYYCATVFSVQGWYFGMNYWGQGSQVTVSS
polyreactivity (PSR sort gate): low polyreactivity

QVQLVESGGGLVQAGGSLRLSCAASGRIFSPSDMGWYRQAPGKERELVAAIRSDGGRTHYADSVKGRFTISRDNAKNTVYLQMNSLKPEDTAVYYCARDNGRTITTTDTYDYWGQGTQVTVSS
polyreactivity (PSR sort gate): low polyreactivity

QVQLVESGGGLVQAGGSLRLSCAASGRIFSPSDMGWYRQAPGKERELVAAIRSDGGRTHYADSVKGRFTISRDNAKNTVYLQMNTLKPEDTAVYYCARDNGRTITTTDTYDYWRQGTQVTVSS
polyreactivity (PSR sort gate): low polyreactivity

QVQLVESGGGLVQAGGSLRLSCAASGRIFSQNAMGWYRQAPGKERELVAVISRGGSTNYADSVKGRFTISRDNAKNTVYLQMNSLKPEDTAVYYCAADYAYIRSVWKWFIGDYWGQGTQVTVSS
polyreactivity (PSR sort gate): low polyreactivity

QVQLVESGGGLVQAGGSLRLSCAASGRIFSQYAMGWYRQAPGKERELVAAISRRTGSTYYADSVKGRFTISRDNAKNTVYLQMNSLKPEDTAVYYCAAASKPWYYYWGQGTQVTVSS
polyreactivity (PSR sort gate): high polyreactivity

QVQLVESGGGLVQAGGSLRLSCAASGRIFSQYAMGWYRQAPGKERELVAAISSRGGRTYYADSVKGRFTISRDNAKNTVYLQMNSLKPEDTAVYYCAAVIRSRYSYYEYDYWGQGTQVTVSS
polyreactivity (PSR sort gate): high polyreactivity

QVQLVESGGGLVQAGGSLRLSCAASGRIFSRKTMGWYRQAPGKEREFVAAISQSGGRTYYADSVKGRFTISRDNAKNTVYLQMNSLKPEDTAVYYCNAQFARSSGFNYWGQGTQVTVSS
polyreactivity (PSR sort gate): high polyreactivity

QVQLVESGGGLVQAGGSLRLSCAASGRIFSRNAMGWYIQAPGKERELVAAISRSGTSTYYADSVKGRFTISRDNAKYTVYLQMNSLKPEDTAVYYCAADYPAVISIRRYDYWGQGTQVTVSS
polyreactivity (PSR sort gate): low polyreactivity

QVQLVESGGGLVQAGGSLRLSCAASGRIFSRNAMGWYRQAPGKERELVAAISRSGTSTYYADSVKGRFTISRDNAKNTVYLQMNSLKPEDTAVYYCAADYPAVISIRRYDYWGQGTQVTVSS
polyreactivity (PSR sort gate): low polyreactivity

QVQLVESGGGLVQAGGSLRLSCAASGRIFSRNAMGWYRQAPGKERELVAAITSGGSTYYADSVKGRFTISRDNAKNTVYLQMNSLKPEDTAVYYCAKRLTYYSWYHLYDYWGQGTQVTVSS
polyreactivity (PSR sort gate): high polyreactivity

QVQLVESGGGLVQAGGSLRLSCAASGRIFSRYAMGWYRQAPGKERELVAAITQSGTSTYYADSVKGRFTISRDNAKNTVYLQMNSLKPEDTAVYYCAAAKHSWRPSYYWGGYWGQGTQVTVSS
polyreactivity (PSR sort gate): low polyreactivity

QVQLVESGGGLVQAGGSLRLSCAASGRIFSRYAMGWYRQAPGKERELVAAITRGGSTYADSVKGRFTISRDNAKNTVYLQMNSLKPEDTAVYYCATPIYSSYYRYSSGYGYDYWGQGTQVTVSS
polyreactivity (PSR sort gate): high polyreactivity

QVQLVESGGGLVQAGGSLRLSCAASGRIFSRYAMGWYRQAPGKERELVATITRRGGSTSYADSVKGRFTISRDNAKNTVYLHMNSLKPEDTAVYYCAAQSFYGIYYGQQDYDYWGQGTQVTVSS
polyreactivity (PSR sort gate): high polyreactivity

QVQLVESGGGLVQAGGSLRLSCAASGRIFSRYAMGWYTQAPGKERELVAAITQSGTSTYDADSVKGRFTISRDNAKNTVYLQMNSLKPEDTAVYFCNAYRQYRYDYWGQGTQVTVSS
polyreactivity (PSR sort gate): low polyreactivity

QVQLVESGGGLVQAGGSLRLSCAASGRIFSRYGMGWYRQAPGKERELVAGISSSGGSTYYADSVKGRFTISRDNAKNTVYLQMNSLKPEDTAVYYCAADDGFYGPDLDYRGQGTQVTVSS
polyreactivity (PSR sort gate): low polyreactivity

QVQLVESGGGLVQAGGSLRLSCAASGRIFSRYVMGWYRQAPGKERELVAAISGRATSTYYADSVKGRFTISRDNAKNTVYLQMNSLKPEDTAVYYCATGYKTYAVTLYDYWGQGTQVTVSS
polyreactivity (PSR sort gate): high polyreactivity

QVQLVESGGGLVQAGGSLRLSCAASGRIFSSNAMGWYRKAPGKEREFVAAINESGGITFYADSVKGRFTISRDNAKNTVYLQLNSLIPEDTAVYYCAKRDYSPWPADGYPYDYDYWGQGTQVTVSS
polyreactivity (PSR sort gate): low polyreactivity

QVQLVESGGGLVQAGGSLRLSCAASGRIFSSYAKGWYRQAPGKERELVAAISRGGGRTYYADSVKGRFTISRDNAKNTVYLQMNSLKPEDTAVYYCATVGRSAAYAFDYWGQGTQVTVSS
polyreactivity (PSR sort gate): high polyreactivity

QVQLVESGGGLVQAGGSLRLSCAASGRIFSSYAMGWYRQAPGKERELVAAISSRGGSTYYADSVKGRFTIARDNAKNTVYLQMNSLKPEDTAVYYCARVKYSGVVYKYDYWGQGTQVTVSS
polyreactivity (PSR sort gate): high polyreactivity

QVQLVESGGGLVQAGGSLRLSCAASGRIFSSYAMGWYRQAPGKERELVAAITRGGSTYYADSVKGRFTISRDNAKNTVYLQMNSLKPEDTAVYYCNAVGFYAANTFDYWGQGTQVTVSS
polyreactivity (PSR sort gate): high polyreactivity

QVQLVESGGGLVQAGGSLRLSCAASGRIFSSYVMGWYRQAPGKERELVAAIRWSGGSTYYADSVKGRFTISRDNAKNTVYLQMNSLKPEDTAVYYCAARHVLYGYYLYDYWGQGTQVTVSS
polyreactivity (PSR sort gate): high polyreactivity

QVQLVESGGGLVQAGGSLRLSCAASGRIFSTNAMGWYRQAPGKEWELVAAITRGVSTKYADSVKGRFTISRDNAKNTVYLQMNSLKPEDTAVYYCAARVVWGPESDYWGQGTQVTVSS
polyreactivity (PSR sort gate): low polyreactivity

QVQLVESGGGLVQAGGSLRLSCAASGRIFSTYAMGWYRQAPGKERELVAAINKIGGSTYYADSVKGRFTISRDNAKNTDYLQMNSLKPEDSAVYYCAADAPYYPVRRYYYWGQGTQVTVSS
polyreactivity (PSR sort gate): low polyreactivity

QVQLVESGGGLVQAGGSLRLSCAASGRIFSVNAMGWYRQAPGTEREFVAAISWSGSSTYYADSVKGRFTSSRDNAKITVYLQMNSLKPEDTAVYYCNADIDFGTREVYYWGQGTQVTVSS
polyreactivity (PSR sort gate): low polyreactivity

QVQLVESGGGLVQAGGSLRLSCAASGRIFSVYAMGWYRQAPGKEREFVASISWRGGRTYYADSVKGRFTISRDNAKNTFYLQMNSLKPEDTAVYYCAAVSYPAVYGFDYWGQGTQVTVSS
polyreactivity (PSR sort gate): high polyreactivity

QVQLVESGGGLVQAGGSLRLSCAASGRIFSVYGMGWYRQAPGKERELVAAMSSSAGSTNYADSVKGRFTISRDNAKNTVYLQMISLKPEDTAVYYCAAYYRRVVYYPTAYYIRKYDYWGQGSQVTVSS
polyreactivity (PSR sort gate): high polyreactivity

QVQLVESGGGLVQAGGSLRLSCAASGRIFSWNTMGWYRQAPGKERELVAAISSSDGSTYYADSVKGRFTISRDNAKNTVYLQMNSVKPEDTAVYYCNKVVSRWNQRWRYSEGNYWGQGTQVTVSS
polyreactivity (PSR sort gate): high polyreactivity

QVQLVESGGGLVQAGGSLRLSCAASGRIFSWYAMGWYRQAPGKERELVAAISASGSSTYYADSVKGRFTISRDNAKNTVYLQMNSLKPEDTAVYYCNTVSAYYARRSEGYDYWGQGTQVTVSS
polyreactivity (PSR sort gate): high polyreactivity

QVQLVESGGGLVQAGGSLRLSCAASGRIFSWYAMGWYRQAPGKERELVAAITVRGSTYYADSVKGRFTISRDNAKNTVYLQMNSLKPEDTAVYYCAAKSSRYAYDYWGQGTQVTVSS
polyreactivity (PSR sort gate): low polyreactivity

QVQLVESGGGLVQAGGSLRLSCAASGRIFSWYAMGWYRQAPGKERELVARITTRGGNTYYADSVKGRFTFSRDNAKNTVYLQMNSLKPEVTAVYYCAARHPYPIYDYWGQGTQVSVSS
polyreactivity (PSR sort gate): low polyreactivity

QVQLVESGGGLVQAGGSLRLSCAASGRIFSYFAMGWYRQAPGKEWELVAASSGNGGSTYYADSVKGRFTISRDNAKNTVYLHMNSLKPEDTAVYYCAADWRSSDWAYLYPYSYDDWGQGTQVTVSS
polyreactivity (PSR sort gate): low polyreactivity

QVQLVESGGGLVQAGGSLRLSCAASGRIFSYNAMGWYRQAPGKERELVAAISSDGSTYYADSVKGRFTISRDNAKNTVYLQMNSLKPVDTAVYYCAARQVVWFDYTTAQVGSYKVNYWGQGTQVTVSS
polyreactivity (PSR sort gate): low polyreactivity

QVQLVESGGGLVQAGGSLRLSCAASGRIFSYNAMGWYRQAPGKERELVAAISTGTSTYYADSVKGRFTISGDNAKNTVYLQMNSLKPEDTAVYYCAVDAYYWYQWYDYWGQGTQVTVSS
polyreactivity (PSR sort gate): low polyreactivity

QVQLVESGGGLVQAGGSLRLSCAASGRIFSYNAMGWYRQAPGKERELVAAITFSGGGTYYADSVKGRFTISRDNAKYTVYLQMNSLKPEDTAVYYCNKVSYGYSTYGYWGQGTQVTVSS
polyreactivity (PSR sort gate): low polyreactivity

QVQLVESGGGLVQAGGSLRLSCAASGRIFSYNAMGWYRQAPGKERELVAPINTSGGSTYYADSVKGRFTISRDNAKNTVYLHMNSLKPEDTAVYYCNATLPVYWPYYYYQGGDDDWGQGTQVTVSS
polyreactivity (PSR sort gate): low polyreactivity

QVQLVESGGGLVQAGGSLRLSCAASGRIFSYNAMGWYRQAPGKERELVARINWSSGRTYYADSVKGRFTISRDNAKNTVYLQMNSLKPEDTAVYYCNRVSRGPVGGYYWGQGTQVTVSS
polyreactivity (PSR sort gate): high polyreactivity
